In US20180155430A1:

Legend:
[1] = target: human PD-1 (Programmed Death-1) (human) (UniProt Q15116); assay: cell-based or functional assay
[2] = target: human PD-L1 (PD-ligand 1) (human) (UniProt Q9NZQ7); assay: cell-based or functional assay
Chain of UniProt Q9NZQ7 (Q9NZQ7 19-290 limits assumed): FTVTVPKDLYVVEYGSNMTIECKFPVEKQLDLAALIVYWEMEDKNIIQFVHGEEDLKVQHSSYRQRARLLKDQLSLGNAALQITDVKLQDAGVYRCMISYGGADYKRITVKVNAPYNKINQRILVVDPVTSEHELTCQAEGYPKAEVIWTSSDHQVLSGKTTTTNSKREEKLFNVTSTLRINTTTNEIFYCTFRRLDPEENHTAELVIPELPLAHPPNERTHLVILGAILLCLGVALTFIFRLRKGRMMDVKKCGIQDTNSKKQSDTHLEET

Chain of UniProt Q15116 (Q15116 other isoform, or with tags, fused parts or gaps limits assumed): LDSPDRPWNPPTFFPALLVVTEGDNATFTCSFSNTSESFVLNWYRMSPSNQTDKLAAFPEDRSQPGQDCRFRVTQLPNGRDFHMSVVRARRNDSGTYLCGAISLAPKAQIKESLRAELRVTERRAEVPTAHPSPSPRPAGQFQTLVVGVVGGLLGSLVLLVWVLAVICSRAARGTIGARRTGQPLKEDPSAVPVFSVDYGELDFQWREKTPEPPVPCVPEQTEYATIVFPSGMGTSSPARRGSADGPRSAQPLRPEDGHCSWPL

Row | expansion of HCV-specific CFSE-low tetramer+ CD8+ T cells, 6 days with cognate peptide and IL-2 [2] [fold] | fold increase in B*4201 TL9 tetramer+ CD8+ T cells, 6-day CFSE proliferation assay of human PBMC with TL9 peptide plus antibody (peptide alone: 4.8-fold) [2] [fold] | fold increase in frequency of EBV or CMV-specific CD8 T cells, 6-day CFSE assay, peptide plus antibody against peptide alone [2] [fold] | percentage of B*4201 TL9-specific CD8+ T cells after 6-day stimulation with peptide [2] [%] | Molecule | expansion of HCV-specific CFSE-low tetramer+ CD8+ T cells, 6 days with cognate peptide and IL-2 [1] [fold]
1 |  |  |  |  | anti-human PD-1 monoclonal antibody EH12 | 4
2 | 4 | 10.3 | < 3.5 | 12.4 | anti-human PD-L1 monoclonal antibody 29E.2A3 (antibody, from another filing, mouse IgG2b, V domains shown) VH: EVQLQQSGPELVKPGASVKMSCKASGYTFTSYVMHWVKQKPGQGLEWIGYVNPFNDGTKYNEMFKGKATLTSDKSSSTAYMELSSLTSEDSAVYYCARQAWGYPWGQGTLVTVSA VL: DIVLTQSPASLAVSLGQRATISCRATESVEYYGTSLVQWYQQKPGQPPKLLIYAASSVDSGVPARFSGSGSGTDFSLTIHPVEEDDIAMYFCQQSRRVPYTFGGGTKLEIK | 
